Laboratory results as given in US7674958B2 (Athenix Corporation, priority 2005, dated 2010).

B1: GRG23(L3P1.B20): GRG23 variant (SEQ ID NO:27), V206→I (protein)
chain: METDRLVIPGSKSITNRALLLAAAAKGTSVLVRPLVSADTSAFKTAIQALGANVSADGDNWVVEGLGQAPHLDADIWCEDAGTVARFLPPFVAAGQGKFTVDGSEQLRRRPLRPLVDGIRHLGARVSSEQLPLTIEASGLAGGEYEIEAHQSSQFASGLIMAAPYARQGLRVRIPNPVSQPYLTMTLRMMRDFGLETSTDGATVSIPPGRYTARRYEIEPDASTASYFAAASAVSGRSFEFQGLGTDSIQGDTSFFNVLGRLGAEVHWAPNSVTISGPERLNGDIEVDMGEISDTFMTLAAIAPLADGPITITNIGHARLKESDRISAMETNLRTLGVQTDVGHDWMRIYPSTPHGGRVNCHRDHRIAMAFSILGLRVDGITLDDPQCVGKTFPGFFDYLGRLFPEKALTLPG
modifications: grg23(L3P1.B20)
B2: GRG23(L3P1.B3): GRG23 variant (SEQ ID NO:29), D75→H, E217→K (protein)
chain: METDRLVIPGSKSITNRALLLAAAAKGTSVLVRPLVSADTSAFKTAIQALGANVSADGDNWVVEGLGQAPHLDAHIWCEDAGTVARFLPPFVAAGQGKFTVDGSEQLRRRPLRPLVDGIRHLGARVSSEQLPLTIEASGLAGGEYEIEAHQSSQFASGLIMAAPYARQGLRVRIPNPVSQPYLTMTLRMMRDFGLETSTDGATVSVPPGRYTARRYKIEPDASTASYFAAASAVSGRSFEFQGLGTDSIQGDTSFFNVLGRLGAEVHWAPNSVTISGPERLNGDIEVDMGEISDTFMTLAAIAPLADGPITITNIGHARLKESDRISAMETNLRTLGVQTDVGHDWMRIYPSTPHGGRVNCHRDHRIAMAFSILGLRVDGITLDDPQCVGKTFPGFFDYLGRLFPEKALTLPG
modifications: grg23(L3P1.B3)
B3: GRG23(L3P1.F18): GRG23 variant (SEQ ID NO:31), T274→I (protein)
chain: METDRLVIPGSKSITNRALLLAAAAKGTSVLVRPLVSADTSAFKTAIQALGANVSADGDNWVVEGLGQAPHLDADIWCEDAGTVARFLPPFVAAGQGKFTVDGSEQLRRRPLRPLVDGIRHLGARVSSEQLPLTIEASGLAGGEYEIEAHQSSQFASGLIMAAPYARQGLRVRIPNPVSQPYLTMTLRMMRDFGLETSTDGATVSVPPGRYTARRYEIEPDASTASYFAAASAVSGRSFEFQGLGTDSIQGDTSFFNVLGRLGAEVHWAPNSVIISGPERLNGDIEVDMGEISDTFMTLAAIAPLADGPITITNIGHARLKESDRISAMETNLRTLGVQTDVGHDWMRIYPSTPHGGRVNCHRDHRIAMAFSILGLRVDGITLDDPQCVGKTFPGFFDYLGRLFPEKALTLPG
modifications: grg23(L3P1.F18)

What was measured:
Assay type in all cases: cell-based
[1] = tested on: E. coli strain DH5α with pUC18-Grg23 (pAX1927); test: Growth on glyphosate plates, grg23-expressing cells; details: concentration to which resistance is conferred
Experimental: Isopropyl-B-D-thiogalactopyranoside (IPTG; 0.1 mM) was also added to the plates. As a control, cells containing pUC18 vector alone were transformed and streaked onto glyphosate plates.

[2] = tested on: E. coli cells containing pAX1967 (GRG51); test: Glyphosate screen on M63+ plates, GRG51-expressing cells; details: 2 days, 37° C.
Experimental: Cells containing pAX1967 were plated onto M63+ plates containing antibiotic and either 0 mM or 20 mM glyphosate. Growth was scored after two days growth at 37° C.

BL21*DE3 E. coli cells = test: Selection of mutant GRG23 enzymes conferring glyphosate resistance in E. coli on 150 mM glyphosate plates; details: clones selected on 150 mM glyphosate; extract activity equal to or superior to GRG23
Experimental: The mutagenized syngrg23 libraries were transformed into E. coli strain BL21*DE3 star (Invitrogen). Following transformation, individual colonies were plated on 1× M63 medium containing 150 mM glyphosate to select for clones that had retained enzymatic activity and growth tolerance.
The plates were incubated for 36 hours at 37° C.
Library plates of extracts of mutagenized syngrg23 clones were assayed for improved enzymatic activity as follows: Library clones were pinned into 96-well blocks containing LB medium and were grown to an O.D. of about 0.6. IPTG was then added (0.5 mM) and the blocks were incubated overnight at 20° C. to induce protein expression. Protein extracts were prepared from the cell pellets using POP culture reagent (Novagen), and the enzymatic activity in the crude lysates was measured. […] The DNA sequences of the clones corresponding to these extracts were determined.

Row | Molecule | glyphosate resistance [1] | resistance to glyphosate [2] | Glyphosate resistance of GRG23 variants (BL21*DE3 E. coli cells)
1 | O=C(O)CNCP(=O)(O)O [glyphosate, N-phosphonomethylglycine] | at least 100 mM | 20 mM | –
2 | B1 | – | – | retained glyphosate resistance
3 | B2 | – | – | retained glyphosate resistance
4 | B3 | – | – | retained glyphosate resistance
